# From paper PMC7018016, “Superstructure formation by RodZ hexamers of Shigella sonnei maintains the rod shape of bacilli” (PLoS ONE, 2020)
# Where “and” joins values, the source holds several entries; their conditions need not be identical. Identical values can stand only once.
# B1: RodZ_(1–142) (domain or fragment)
# chain: MNTEATHDQNEALTTGARLRNAREQLGLSQQAVAERLCLKVSTVRDIEEDKAPADLASTFLRGYIRSYARLVHIPEEELLPGLEKQAPLRAAKVAPMQSFSLGKRRKKRDGWLMTFTWLVLFVVIGLSGAWWWQDHKAQQEE
# notes: RodZ of Shigella sonnei, residues 1-142; not shown: His6, C-terminal, kept
# B2: RodZwt (wild-type RodZ of Shigella sonnei, his6-tagged) (natural protein, S. sonnei, UniProt Q3YZ36 1-337, looked up)
# chain: MNTEATHDQNEALTTGARLRNAREQLGLSQQAVAERLCLKVSTVRDIEEDKAPADLASTFLRGYIRSYARLVHIPEEELLPGLEKQAPLRAAKVAPMQSFSLGKRRKKRDGWLMTFTWLVLFVVIGLSGAWWWQDHKAQQEEITTMADQSSAELSSNSEQGQSVPLNTSTTTDPATTSTPPASVDTTATNTQTPAVTAPAPAVDPQQNAVVSPSQANVDTAATPVPTAATTPDGAAPLPTDQAGVTTPAADPNALVMNFTADCWLEVTDATGKKLFSGMQRKDGNLNLTGQAPYKLKIGAPAAVQIQYQGKPVDLSRFIRTNQVARLTLNAEQSPAQ
# notes: RodZ of Shigella sonnei MS390, whole rodZ amplified with primers from the start codon to the last codon (337 residues); Cloned NdeI-XhoI into pET22b; predicted mass 36.83 kDa; The XhoI site of pET22b probably adds Leu-Glu before the his6 tag (surmise); also called his6-tagged RodZ; purified RodZwt; not shown: His6, C-terminal, kept
# B3: RodZ_(50–337) (domain or fragment)
# chain: DKAPADLASTFLRGYIRSYARLVHIPEEELLPGLEKQAPLRAAKVAPMQSFSLGKRRKKRDGWLMTFTWLVLFVVIGLSGAWWWQDHKAQQEEITTMADQSSAELSSNSEQGQSVPLNTSTTTDPATTSTPPASVDTTATNTQTPAVTAPAPAVDPQQNAVVSPSQANVDTAATPVPTAATTPDGAAPLPTDQAGVTTPAADPNALVMNFTADCWLEVTDATGKKLFSGMQRKDGNLNLTGQAPYKLKIGAPAAVQIQYQGKPVDLSRFIRTNQVARLTLNAEQSPAQ
# notes: RodZ of Shigella sonnei, residues 50-337; The forward primer adds a start methionine before D50; calculated mass 31.64 kDa; also called N-terminal deletion RodZ_(50-337); not shown: His6, C-terminal, kept
# How the values were obtained:
# [1] = biological target: RodZ_(ΔKRRKKR) (S. sonnei) (UniProt Q3YZ36); assay: native gel or EMSA; 3%–12% BN-PAGE (NativePAGE Novex Bis-Tris), CBB without SDS, loading buffer with mild detergents; 5 μl of each purified protein
# [2] = biological target: the molecule itself; assay: as above
# [3] = biological target: the molecule itself; assay: cross-linking + other: High-Mass MALDI-TOF MS; serial dilutions (1 mg/ml–19.53 μg/ml) in PBS, treated with K200 Stabilizer crosslinker, CovalX HM3 module, 0–1500 kDa; Complex Tracker software corrects for the mass of the crosslinker; monomer measured without crosslinker
Molecule,stoichiometry N [1],binding result [2],stoichiometry N [2],stoichiometry N [3]
RodZ_(ΔKRRKKR) (from UniProt Q3YZ36 1-337) (natural protein),6,–,–,–
B1,–,binds,–,–
B2,–,–,~6,6.36 times and 6 times
B3,–,–,~2,6.05 times and 6.22 times and 6.03 times
